Laboratory results taken from US20240034801A1 (published 2024).

Key:
[1] = target: T1, human PD-L1-Fc (ACROBiosystems, catalog number PD1-H5258) (human, UniProt Q9NZQ7 19-238); experiment: competition ELISA; blocking PD-L1/PD-1
[2] = target: recombinant human 4-1BB (Sino Biological Inc., catalog number 10041-H08H) (human, UniProt Q07011 24-186); experiment: ELISA; Fig. 8B
[3] = target: 4-1BB on GS-H2/4-1BB cells (purchased from GenScript) (UniProt Q07011 24-255); experiment: FACS binding; Fig. 8C, GS-H2/4-1BB cells
[4] = target: T1, human PD-L1-Fc (ACROBiosystems, catalog …); experiment: competition ELISA; blocking PD-L1/CD80
[5] = target: recombinant human PD-L1 (Sino Biological Inc., catalog number 100 84-H08H) (human, UniProt Q9NZQ7 19-239); experiment: ELISA; Fig. 8A
Sequence of recombinant human PD-L1 (Sino Biological Inc., catalog number 100 84-H08H) (Q9NZQ7 19-239): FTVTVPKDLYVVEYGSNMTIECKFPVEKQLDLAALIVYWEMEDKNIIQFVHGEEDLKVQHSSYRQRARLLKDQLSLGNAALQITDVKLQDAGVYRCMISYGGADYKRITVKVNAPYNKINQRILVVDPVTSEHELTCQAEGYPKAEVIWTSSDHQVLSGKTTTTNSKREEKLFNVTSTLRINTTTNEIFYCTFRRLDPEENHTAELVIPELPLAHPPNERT

T1 sequence (Q9NZQ7 19-238): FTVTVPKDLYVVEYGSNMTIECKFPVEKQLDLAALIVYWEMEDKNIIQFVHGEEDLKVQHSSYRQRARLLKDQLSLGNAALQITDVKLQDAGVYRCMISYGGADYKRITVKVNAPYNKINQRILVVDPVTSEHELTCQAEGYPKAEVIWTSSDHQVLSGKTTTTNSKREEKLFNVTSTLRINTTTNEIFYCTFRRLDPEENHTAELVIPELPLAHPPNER
Sequence of 4-1BB on GS-H2/4-1BB cells (purchased from GenScript) (Q07011 24-255): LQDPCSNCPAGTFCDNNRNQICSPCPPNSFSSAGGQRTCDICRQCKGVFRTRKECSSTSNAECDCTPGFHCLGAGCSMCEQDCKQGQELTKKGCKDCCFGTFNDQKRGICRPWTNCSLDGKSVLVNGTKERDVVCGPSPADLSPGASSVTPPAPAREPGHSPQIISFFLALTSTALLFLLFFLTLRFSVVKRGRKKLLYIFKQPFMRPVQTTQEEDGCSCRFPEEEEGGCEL
Sequence of recombinant human 4-1BB (Sino Biological Inc., catalog number 10041-H08H) (Q07011 24-186): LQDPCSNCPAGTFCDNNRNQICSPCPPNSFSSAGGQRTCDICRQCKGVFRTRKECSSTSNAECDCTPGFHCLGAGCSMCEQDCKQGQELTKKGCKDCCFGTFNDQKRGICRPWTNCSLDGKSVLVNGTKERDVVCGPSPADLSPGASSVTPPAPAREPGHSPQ

EC50 [1] [nM] | EC50 [2] [nM] | EC50 [3] [nM] | EC50 [4] [nM] | EC50 [5] [nM] | Binder
4.86 | 4.02 | 0.396 | 1.72 | 0.345 | anti-PD-L1/anti-4-1BB heterodimeric antibody BH3120h (bispecific antibody) heavy 1: not shown light 1: DIQMTQSPSSLSASVGDRVTITCKASQDVHTAVAWIQQKPGKSPKLLIYSASNRYTGVPSRFSGSGSGTDFTFTISSLQPEDIATYYCQQHYITPLTFGQGTKLEIKRTVAAPSVFIFPPSDEQLKSGTASVVCLLNNFYPREAKVQWKVDNALQSGNSQESVTEQDSKDSTYSLSSTLTLSKADYEKHKVYACEVTHQGLSSPVTKSFNRGEC heavy 2: QVQLVQSGAEVKKPGSSVKVSCKASGYTFTSYWINWVRQAPGQGLEWMGNIYPSDSYTNYNQKFKDRVTITADKSTSTAYMELSSLRSEDTAVYYCARLYYGSSPFDYWGQGTTVTVSSASTKGPSVFPLAPSSKSTSGGTAALGCLVKDYFPEPVTVSWNSGALTSGVHTFPAVLQSSGLYSLSSVVTVPSSSLGTQTYICNVNHKPSNTKVDKKVEPKSCDKTHTCPPCPAPELLGGPSVFLFPPKPKDTLMISRTPEVTCVVVDVSHEDPEVKFNWYVDGVEVHNAKTKPREEQYASTYRVVSVLTVLHQDWLNGKEYKCKVSNKALPAPIEKTISKAKGQPREPQVYTEPPSRDELTKNQVSLTCLVKGFYPSDIAVEWESNGQPENNYKTTPPVLDSDGSFFLLSVLTVDKSRWQQGNVFSCSVMHEALHNHYTQKSLSLSPGK light 2: not shown
0.884 |  |  | 0.656 | 0.102 | Anti-PD-L1 mAb (antibody, V domains shown) VH: EVQLVQSGAEVKKPGSSVKVSCKASGFNIEDTYIHWVRQAPGQGLEWMGRIDPANANTKYDPKFQGRVTITADTSTNTAYMELSSLRSEDTAVYYCGRGLGAWFAYWGQGTLVTVSS VL: DIQMTQSPSSLSASVGDRVTITCKASQDVHTAVAWIQQKPGKSPKLLIYSASNRYTGVPSRFSGSGSGTDFTFTISSLQPEDIATYYCQQHYITPLTFGQGTKLEIK
 | 0.045 | 1.28 |  |  | Anti-4-1BB mAb (antibody, V domains shown) VH: QVQLVQSGAEVKKPGSSVKVSCKASGYTFTSYWINWVRQAPGQGLEWMGNIYPSDSYTNYNQKFKDRVTITADKSTSTAYMELSSLRSEDTAVYYCARLYYGSSPFDYWGQGTTVTVSS VL: DIQMTQSPSSLSASVGDRVTITCRASQDISNYLNWYQQKPGKVPKLLIYHTSRLHSGVPSRFSGSGSGTDFTLTISSLQPEDVATYYCQQGHTLPRTFGGGTKVEIK
